The term IC50 denotes the midpoint of a concentration-inhibition curve.

This assay has as its target HA-tagged PA of FluA (Influenza A virus). Put plainly: ELISA. On the technique in general: An ELISA detects its analyte on a solid surface through an enzyme-linked reagent.

Chain of soluble wild-type PB1_(1–25)A peptide (non-biotinylated competitor) (A4GCI3 1-25): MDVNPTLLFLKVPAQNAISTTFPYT

Take “soluble wild-type PB1_(1–25)A peptide (non-biotinylated competitor)”: the half-maximal inhibitory concentration (IC50) was found to be 1.8 nM. In other words, the single-digit nanomolar range.

(Values after PMC2759517.)
